{"source": "patent US20240279630", "about": "“ISOLATED CAS13 PROTEIN AND USE THEREOF” (GUANGZHOU REFORGENE MEDICINE CO., LTD., published 2024)", "key": {"[1]": {"test_system": "CasRx (Cas13d)", "test": "cell_activity"}, "[2]": {"target": "T1, Cas13m.5 (Bacteroidetes bacterium)", "T1 chain": "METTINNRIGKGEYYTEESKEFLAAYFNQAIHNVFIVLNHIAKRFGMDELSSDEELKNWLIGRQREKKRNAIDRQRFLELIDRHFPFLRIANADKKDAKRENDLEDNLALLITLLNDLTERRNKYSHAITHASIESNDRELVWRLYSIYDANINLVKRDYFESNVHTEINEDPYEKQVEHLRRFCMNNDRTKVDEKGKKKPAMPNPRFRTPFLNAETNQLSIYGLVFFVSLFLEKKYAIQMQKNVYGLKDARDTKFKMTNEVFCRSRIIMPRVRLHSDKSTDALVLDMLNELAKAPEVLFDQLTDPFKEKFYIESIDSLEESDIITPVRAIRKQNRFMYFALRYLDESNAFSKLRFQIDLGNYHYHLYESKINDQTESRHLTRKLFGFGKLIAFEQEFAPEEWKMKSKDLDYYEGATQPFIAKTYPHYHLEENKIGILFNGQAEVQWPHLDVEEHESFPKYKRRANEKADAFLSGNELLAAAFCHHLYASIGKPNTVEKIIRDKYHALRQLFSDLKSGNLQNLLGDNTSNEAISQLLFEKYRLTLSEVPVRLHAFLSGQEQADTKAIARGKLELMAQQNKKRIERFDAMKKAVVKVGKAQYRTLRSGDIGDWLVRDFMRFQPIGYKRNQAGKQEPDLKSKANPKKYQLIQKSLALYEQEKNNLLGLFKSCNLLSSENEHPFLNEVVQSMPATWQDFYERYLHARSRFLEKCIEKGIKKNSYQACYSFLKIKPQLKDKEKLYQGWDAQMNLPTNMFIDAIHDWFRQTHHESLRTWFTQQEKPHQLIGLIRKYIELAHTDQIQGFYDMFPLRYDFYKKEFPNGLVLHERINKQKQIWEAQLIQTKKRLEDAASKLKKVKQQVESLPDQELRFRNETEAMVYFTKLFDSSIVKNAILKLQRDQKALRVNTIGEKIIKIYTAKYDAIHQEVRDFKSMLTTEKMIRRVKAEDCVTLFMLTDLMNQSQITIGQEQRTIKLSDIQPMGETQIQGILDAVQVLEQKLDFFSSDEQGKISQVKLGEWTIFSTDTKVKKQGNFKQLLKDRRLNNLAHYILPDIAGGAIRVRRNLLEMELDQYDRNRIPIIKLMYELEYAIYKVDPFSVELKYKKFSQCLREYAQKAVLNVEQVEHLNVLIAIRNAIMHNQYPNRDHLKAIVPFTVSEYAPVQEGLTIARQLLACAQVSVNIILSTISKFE", "test": "cell_activity; 293T, 72 h", "conditions": "tags: NLS fusion", "experimental": "(§1) The 293T cells were transfected with the PTBP1-targeting plasmids of Cas13 m.2, Cas13 m.3, Cas13 m.5, CasRfg.2 and CasRx at 800 ng in a 24-well plate. The negative control group was transfected with the CasRx-BpiI plasmid.\n(§2) The transfection method was as follows: [0276] 1) The cells were digested by trypsin (0.25% of Trypsin, EDTA, Thermo, 11058021), counted, and plated into a 24-well plates at 2×10⁵ cells according to 500 uL per well. [0277] 2) For each transfected sample, the complex was prepared according to the following steps: [0278] a. each well of the 24-well plate into which the cells were added, were added with 50 uL of serum-free Opti-MEM I (Thermo, 25200056) reduced serum medium for dilution of the aforementioned plasmid DNA, and mixed gently; [0279] b. it was gently mixed with Lipofectamine 2000 (Thermo, 11668019) before use, and then 1.8 uL of the Lipofectamine 2000 was diluted in each well, i.e., in 50 uL of the Opti-MEM I medium. It was incubated at room temperature for 5 minutes. Note: it was continued to perform step c within 25 minutes; [0280] c. after incubation for 5 minutes, the diluted DNA was combined with the diluted Lipofectamine 2000. They were gently mixed and incubated at room temperature for 20 minutes (the solution might be cloudy visually). Note: the complex was stabilized at room temperature for 6 hours.\n(§3) The complex was added into the cells and mixed, and then detected with a QuantStudio™ 5 Real-Time PCR System, 96-well after 72 h."}, "[3]": {"target": "T2, Cas13m.2 (metagenome)", "T2 chain": "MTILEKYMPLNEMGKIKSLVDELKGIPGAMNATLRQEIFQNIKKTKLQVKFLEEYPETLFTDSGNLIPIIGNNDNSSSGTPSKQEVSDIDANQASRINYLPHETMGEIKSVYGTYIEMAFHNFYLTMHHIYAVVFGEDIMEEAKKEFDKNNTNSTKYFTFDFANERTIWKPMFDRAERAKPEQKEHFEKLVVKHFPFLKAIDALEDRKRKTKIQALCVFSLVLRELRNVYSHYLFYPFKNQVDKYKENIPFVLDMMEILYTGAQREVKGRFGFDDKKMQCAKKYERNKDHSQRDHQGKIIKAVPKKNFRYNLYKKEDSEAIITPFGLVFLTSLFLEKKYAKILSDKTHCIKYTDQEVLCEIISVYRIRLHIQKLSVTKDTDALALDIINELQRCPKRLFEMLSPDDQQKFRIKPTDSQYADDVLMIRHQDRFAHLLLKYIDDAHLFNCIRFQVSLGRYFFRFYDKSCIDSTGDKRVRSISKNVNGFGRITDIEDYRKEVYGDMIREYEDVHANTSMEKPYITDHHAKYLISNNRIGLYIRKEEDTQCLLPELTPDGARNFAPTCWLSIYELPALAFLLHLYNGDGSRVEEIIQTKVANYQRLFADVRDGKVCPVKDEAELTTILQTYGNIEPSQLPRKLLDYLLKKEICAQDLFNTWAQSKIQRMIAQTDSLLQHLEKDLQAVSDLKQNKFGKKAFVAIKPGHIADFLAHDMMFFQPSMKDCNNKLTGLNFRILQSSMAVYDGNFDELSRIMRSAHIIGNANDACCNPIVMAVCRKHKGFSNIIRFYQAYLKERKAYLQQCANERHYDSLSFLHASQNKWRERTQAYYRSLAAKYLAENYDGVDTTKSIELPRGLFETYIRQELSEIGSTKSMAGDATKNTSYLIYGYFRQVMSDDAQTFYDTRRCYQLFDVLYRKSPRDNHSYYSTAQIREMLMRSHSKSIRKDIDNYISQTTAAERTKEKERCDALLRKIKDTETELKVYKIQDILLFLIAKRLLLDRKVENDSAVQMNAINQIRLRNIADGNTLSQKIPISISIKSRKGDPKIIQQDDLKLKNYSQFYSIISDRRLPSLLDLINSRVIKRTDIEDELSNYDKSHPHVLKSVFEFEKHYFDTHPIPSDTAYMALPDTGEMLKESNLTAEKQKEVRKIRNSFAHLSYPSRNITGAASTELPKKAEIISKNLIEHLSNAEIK", "test": "cell_activity; 293T, 72 h", "conditions": "tags: NLS fusion", "experimental": "as §1, §2, §3"}, "[4]": {"target": "T3, CasRfg.2 (Cas13d) (metagenome)", "T3 chain": "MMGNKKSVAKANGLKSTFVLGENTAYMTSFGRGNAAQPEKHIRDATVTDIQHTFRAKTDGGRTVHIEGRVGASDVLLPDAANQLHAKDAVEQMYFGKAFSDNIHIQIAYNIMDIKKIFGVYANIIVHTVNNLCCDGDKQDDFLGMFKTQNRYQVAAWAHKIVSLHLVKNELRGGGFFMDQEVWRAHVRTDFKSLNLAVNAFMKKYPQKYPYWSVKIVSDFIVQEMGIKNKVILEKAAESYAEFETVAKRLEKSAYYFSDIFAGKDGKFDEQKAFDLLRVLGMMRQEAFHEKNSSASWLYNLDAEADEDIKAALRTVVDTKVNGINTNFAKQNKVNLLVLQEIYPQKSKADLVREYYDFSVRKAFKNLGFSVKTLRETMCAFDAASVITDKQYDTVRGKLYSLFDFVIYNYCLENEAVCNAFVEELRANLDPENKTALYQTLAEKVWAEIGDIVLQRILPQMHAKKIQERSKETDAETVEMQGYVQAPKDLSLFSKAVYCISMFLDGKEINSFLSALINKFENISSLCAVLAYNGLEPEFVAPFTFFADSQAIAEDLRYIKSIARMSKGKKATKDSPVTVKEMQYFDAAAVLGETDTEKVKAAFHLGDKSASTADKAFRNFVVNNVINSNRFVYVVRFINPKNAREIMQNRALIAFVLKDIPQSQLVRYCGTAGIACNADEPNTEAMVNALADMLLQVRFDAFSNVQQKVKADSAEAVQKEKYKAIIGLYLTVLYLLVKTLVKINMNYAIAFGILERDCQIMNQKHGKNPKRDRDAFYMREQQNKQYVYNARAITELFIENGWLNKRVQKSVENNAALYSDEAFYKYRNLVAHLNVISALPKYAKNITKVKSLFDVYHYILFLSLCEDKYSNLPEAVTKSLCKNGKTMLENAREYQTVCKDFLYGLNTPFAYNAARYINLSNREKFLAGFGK", "test": "cell_activity; 293T, 72 h", "conditions": "tags: NLS fusion", "experimental": "as §1, §2, §3"}, "[5]": {"target": "T4, Cas13m.3 (uncultured Bacteroidetes bacterium)", "T4 chain": "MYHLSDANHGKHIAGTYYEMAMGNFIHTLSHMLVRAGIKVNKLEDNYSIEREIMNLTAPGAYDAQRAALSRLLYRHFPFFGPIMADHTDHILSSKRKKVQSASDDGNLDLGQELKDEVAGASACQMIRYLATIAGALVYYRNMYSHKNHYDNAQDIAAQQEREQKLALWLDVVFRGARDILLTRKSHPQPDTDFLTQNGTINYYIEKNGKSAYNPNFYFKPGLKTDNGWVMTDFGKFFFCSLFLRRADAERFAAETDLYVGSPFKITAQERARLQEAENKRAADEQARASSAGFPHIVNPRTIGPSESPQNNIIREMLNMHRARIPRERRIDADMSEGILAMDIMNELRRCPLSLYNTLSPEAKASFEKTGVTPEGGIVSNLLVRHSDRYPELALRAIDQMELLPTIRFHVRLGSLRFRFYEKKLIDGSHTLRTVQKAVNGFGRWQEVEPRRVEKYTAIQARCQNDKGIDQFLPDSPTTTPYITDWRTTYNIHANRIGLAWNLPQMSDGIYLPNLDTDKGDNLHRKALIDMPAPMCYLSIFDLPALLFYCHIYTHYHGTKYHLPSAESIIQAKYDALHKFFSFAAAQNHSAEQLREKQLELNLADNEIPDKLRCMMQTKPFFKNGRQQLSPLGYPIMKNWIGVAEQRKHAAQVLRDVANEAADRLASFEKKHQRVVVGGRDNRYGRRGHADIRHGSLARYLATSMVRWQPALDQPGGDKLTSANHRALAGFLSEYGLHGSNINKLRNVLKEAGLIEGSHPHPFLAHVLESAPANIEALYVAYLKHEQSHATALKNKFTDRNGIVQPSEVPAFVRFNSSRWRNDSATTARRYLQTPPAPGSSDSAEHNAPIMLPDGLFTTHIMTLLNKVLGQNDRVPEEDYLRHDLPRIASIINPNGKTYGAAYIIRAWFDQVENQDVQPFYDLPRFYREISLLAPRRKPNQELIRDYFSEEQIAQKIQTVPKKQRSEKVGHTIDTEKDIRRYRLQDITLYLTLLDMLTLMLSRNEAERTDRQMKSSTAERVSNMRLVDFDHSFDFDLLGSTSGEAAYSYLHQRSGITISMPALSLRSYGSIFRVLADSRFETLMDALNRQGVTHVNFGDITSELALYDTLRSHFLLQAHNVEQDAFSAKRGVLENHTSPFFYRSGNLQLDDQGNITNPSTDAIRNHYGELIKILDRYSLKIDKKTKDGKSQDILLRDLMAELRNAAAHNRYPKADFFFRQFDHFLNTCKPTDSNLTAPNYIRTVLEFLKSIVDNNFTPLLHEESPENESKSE", "test": "cell_activity; 293T, 72 h", "conditions": "tags: NLS fusion", "experimental": "as §1, §2, §3"}}, "data": [{"molecule": "GUGGUUGGAGAACUGGAUGUAGAUGGGCUG / CAGCCCAUCUACAUCCAGUUCUCCAACCAC [PTBP1 gRNA CasRx (guide part only) ; PTBP1 mRNA site]", "values": [{"measurement": "activity (relative mRNA level)", "setting": "[1]; 293T, 72 h, 0.59 in Table 10", "value": 0.6}]}, {"molecule": "GAAGACAAAGAGGGUCGUGG / CCACGACCCUCUUUGUCUUC", "values": [{"measurement": "activity (relative mRNA level)", "setting": "[1]; 293T-AQp1, 72 h", "value": 0.05}]}, {"molecule": "AGGGCAGAACCGAUGCUGAUGAAGAC / GUCUUCAUCAGCAUCGGUUCUGCCCU", "values": [{"measurement": "activity (relative mRNA level)", "setting": "[1]; control 1.00", "value": 0.03}]}, {"molecule": "PTBP1 gRNA Cas13m.5 ; PTBP1 mRNA site (ssRNA ; ssRNA) RNA 1: GUGGUUGGAGAACUGGAUGUAGAUGGGCUGGUUGUGUGUGCCUUUCAAAUUGAAGGCGUUCCCAAC RNA 2: CAGCCCAUCUACAUCCAGUUCUCCAACCAC", "values": [{"measurement": "activity", "setting": "[2]", "value": 0.7, "unit": "relative mRNA level"}]}, {"molecule": "PTBP1 gRNA Cas13m.2 ; PTBP1 mRNA site (ssRNA ; ssRNA) RNA 1: GUGGUUGGAGAACUGGAUGUAGAUGGGCUGGUUGUAGAUGACCUCGUUUUGGAGGGGAAACACAAC RNA 2: CAGCCCAUCUACAUCCAGUUCUCCAACCAC", "values": [{"measurement": "activity", "setting": "[3]", "value": 0.49, "unit": "relative mRNA level"}]}, {"molecule": "PTBP1 gRNA CasRfg.2 ; PTBP1 mRNA site (ssRNA ; ssRNA) RNA 1: GGUUUUACACCCGUGUAAAACUACACAGUUCUAAAACGUGGUUGGAGAACUGGAUGUAGAUGGGCUG RNA 2: CAGCCCAUCUACAUCCAGUUCUCCAACCAC", "values": [{"measurement": "activity", "setting": "[4]", "value": 0.78, "unit": "relative mRNA level"}]}, {"molecule": "PTBP1 gRNA Cas13m.3 ; PTBP1 mRNA site (ssRNA ; ssRNA) RNA 1: GUGGUUGGAGAACUGGAUGUAGAUGGGCUGGUUGUAGAAGCCGUUCAUUCGGGACGGUAUGACAAC RNA 2: CAGCCCAUCUACAUCCAGUUCUCCAACCAC", "values": [{"measurement": "activity", "setting": "[5]", "value": 0.46, "unit": "relative mRNA level"}]}]}
